Experimental data published in patent US20210079067A1 (US Dept. of Health and Human Services, published 2021).

Assays:
[1] = molecular target: T1, mucin-domain-deleted Zaire ebolavirus GP (Zaire ebolavirus, UniProt Q05320 33-650)
[2] = molecular target: T1, mucin-domain-deleted Zaire ebolavirus GP; test: biolayer interferometry, mAb, pH 7.4, 1:2 bivalent model (apparent)
[3] = molecular target: T1, mucin-domain-deleted Zaire ebolavirus GP; test: biolayer interferometry, mAb, pH 7.4, 1:2 bivalent model
[4] = molecular target: T1, mucin-domain-deleted Zaire ebolavirus GP; test: biolayer interferometry, Fab, pH 7.4, 1:1 model; Fab, BLI, pH 7.4
[5] = molecular target: T1, mucin-domain-deleted Zaire ebolavirus GP; test: pH 5.3
[6] = molecular target: T1, mucin-domain-deleted Zaire ebolavirus GP; test: biolayer interferometry, Fab, pH 5.3, 1:1 model; Fab, BLI, pH 5.3
[7] = molecular target: T1, mucin-domain-deleted Zaire ebolavirus GP; test: pH 7.4

B1: mAb100 (antibody, V domains shown)
VH: QVQLQESGPGLVKPSDTLSLTCTVSGGSLSSFYWSWIRQPPGKGLEWIGYIYYSGSPNYSPSLESRVTMSVDTTRNQISLKLDSVTAADTAVYYCVRASRSYYWGSYRPTAFDSWGQGTLVTVSS
VL: SYELTQPLSVSVSPGQTAIFTCSGDNLGDKYVCWFQQRPGQSPMLLIYQDNKRPSGIPERFSGSNSGNTATLTISGTQSTDEADYYCQTWDSTVVFGGGTKLTVL
[1]
  EC50 (read off the curve): ~0.01 µg/mL
[2]
  Kd: 0.0628 nM
[3]
  koff: 8.91e-06 s⁻¹
  kon: 143000 M⁻¹ s⁻¹

B2: S1-4-A09 Fab (Fab, V domains shown)
VH: QVQLQESGPGLVKPSETLSLTCVVSGGILSSFYWNWIRQPPGKGLEWIGNIYYSGSPNYNASFQSRVAISVDTSKNQISLNLKSVTAADTAMYYCVRASRAYLWGSYRPTALDLWGQGSLVTVSS
VL: SYELTQPPSVSVSPGQTATITCSGDKLGDKYTSWFQQRPGQSPLLVIYQDNKRPSGLPARFSGSNSGNTATLTISGTQAMDEADYLCQVWDSGAVFGGGTKLTVL
[4]
  Kd: 1.04 nM
[5]
  koff: 0.000179 s⁻¹
  kon: 85200 M⁻¹ s⁻¹
[6]
  Kd: 2.1 nM
[7]
  koff: 0.000136 s⁻¹
  kon: 131000 M⁻¹ s⁻¹
